Experimental data as given in patent publication US12269859B2, “Synthetic immune receptors and methods of use thereof” (Angeles Therapeutics, Inc., priority 2016, dated 2025).

B1: 082317-G04 (protein)
chain: MALPVTALLLPLALLLHAARPLEGKPIPNPLLGLDSTGSGEDLKNVFPPEVAVFEPSKAEIAHTQKATLVCLATGFYPDHVELSWWVNGKEVHSGVCTDPQPLKEQPALNDSRYCLSSRLRVSATFWQNPRNHFRCQVQFYGLSENDEWTQDRAKPVTQIVSAEAWGRADCGITSASYHQGVLSATILYEILLGKATLYAVLVSALVLMAMVKRKDSRGRAKRSGSGATNFSLLKQAGDVEENPGPTSMALPVTALLLPLALLLHAARPQIVLTQSPAIMSASPGEKVTITCSASSSVSYMHWFQQKPGTSPKLWIYSTSNLASGVPARFSGSGSGTSYSLTISRMEAEDAATYYCQQRSSYPPTFGGGTKLEIKGGGGSGGGGSGGGGSQVQLQQSGAELMKPGASVKISCKATGYTFSSYWIEWVKQRPGHGLEWIGEILPGSGSTNYNEKFKGKATFTADTSSNTAYMQLSSLTSEDSAVYYCARYDYPWFAYWGQGTLVTVSATREQKLISEEDGSGIQNPDPAVYQLRDSKSSDKSVCLFTDFDSQTNVSQSKDSDVYITDKCVLDMRSMDFKSNSAVAWSNKSDFACANAFNNSIIPEDTFFPSSDVPCDVKLVEKSFETDTNLNFQNLSVIGFRILLLKVAGFNLLMTLRLWSSRAKRSGSGVKQTLNFDLLKLAGDVESNPGPSRGHMTEYKPTVRLATRDDVPRAVRTLAAAFADYPATRHTVDPDRHIERVTELQELFLTRVGLDIGKVWVADDGAAVAVWTTPESVEAGAVFAEIGPRMAELSGSRLAAQQQMEGLLAPHRPKEPAWFLATVGVSPDHQGKGLGSAVVLPGVEAAERAGVPAFLETSAPRNLPFYERLGFTVTADVEVPEGPRTWCMTRKPGA
B2: 110116-H02 (protein)
chain: MALPVTALLLPLALLLHAARPLEQKLISEEDLGSGDRPDPAVYQLRDSKSSDKSVCLFTDFDSQTNVSQSKDSDVYITDKCVLDMRSMDFKSNSAVAWSNKSDFACANAFNNSIIPEDTFFPSPESSCDVKLVEKSFETDTNLNFQNLSVIGFRILLLKVAGFNLLMTLRLWSSSSRAKRSGSGVKQTLNFDLLKLAGDVESNPGPTSMALPVTALLLPLALLLHAARPDIQMTQSTSSLSASLGDRVTISCSASQGINNYLNWYQQKPDGTVELLIYYTSTLQSGVPSRFSGSGSGTDYSLTISNLEPEDIGTYYCQQYSKLPRTFGGGTKLEIKGGGGSGGGGSGGGGSQVQLQQSGSELMMPGASVKISCKATGYTFSNYWIEWVKQRPGHGLEWIGEILPGTGRTIYNEKFKGKATFTADISSNTVQMQLSSLTSEDSAVYYCARRDYYGNFYYAMDYWGQGTSVTVSSTRGKPIPNPLLGLDSTGSGEDLKNVFPPEVAVFEPSEAEISHTQKATLVCLATGFYPDHVELSWWVNGKEVHSGVCTDPQPLKEQPALNDSRYCLSSRLRVSATFWQNPRNHFRCQVQFYGLSENDEWTQDRAKPVTQIVSAEAWGRADCGFTSESYQQGVLSATILYEILLGKATLYAVLVSALVLMAMVKRKDSRGRAKRSGSGATNFSLLKQAGDVEENPGPSRGHMTEYKPTVRLATRDDVPRAVRTLAAAFADYPATRHTVDPDRHIERVTELQELFLTRVGLDIGKVWVADDGAAVAVWTTPESVEAGAVFAEIGPRMAELSGSRLAAQQQMEGLLAPHRPKEPAWFLATVGVSPDHQGKGLGSAVVLPGVEAAERAGVPAFLETSAPRNLPFYERLGFTVTADVEVPEGPRTWCMTRKPGA
modifications: Synthetic Immune Receptor (SIR)
B3: 041816-A03 (protein)
chain: MALPVTALLLPLALLLHAARPDIQMTQSPSSLSASLGERVSLTCRATQELSGYLSWLQQKPDGTIKRLIYAASTLDSGVPKRFSGNRSGSDYSLTISSLESEDFADYYCLQYAIYPYTFGGGTKLEIKLEDLKNVFPPEVAVFEPSEAEISHTQKATLVCLATGFYPDHVELSWWVNGKEVHSGVSTDPQPLKEQPALNDSRYCLSSRLRVSATFWQNPRNHFRCQVQFYGLSENDEWTQDRAKPVTQIVSAEAWGRADCGFTSESYQQGVLSATILYEILLGKATLYAVLVSALVLMAMVKRKDSRGRAKRSGSGATNFSLLKQAGDVEENPGPTSMDWIWRILFLVGAATGAHSFEEVQLQQSGPELVKPGASVKMSCKASGYTFTSYFIHWVKQKPGQGLEWIGFINPYNDGSKYNEKFKGKATLTSDKSSSTAYMELSSLTSEDSAVYYCTRDDGYYGYAMDYWGQGTSVTVSSTREQKLISEEDGSGTPFPSLAPPIMLLVDGKQQMVVVCLVLDVAPPGLDSPIWFSAGNGSALDAFTYGPSPATDGTWTNLAHLSLPSEELASWEPLVCHTGPGAEGHSRSTQPMHLSGEASTARTCPQEPLRGTPGGALWLGVLRLLLFKLLLFDLLLTCSCLCDPAGPLPSPATTTRLRALGSHRLHPATETGGREATSSPRPQPRDRRWGDTPPGRKPGSPVRAKRSGSGVKQTLNFDLLKLAGDVESNPGPSRGHMTEYKPTVRLATRDDVPRAVRTLAAAFADYPATRHTVDPDRHIERVTELQELFLTRVGLDIGKVWVADDGAAVAVWTTPESVEAGAVFAEIGPRMAELSGSRLAAQQQMEGLLAPHRPKEPAWFLATVGVSPDHQGKGLGSAVVLPGVEAAERAGVPAFLETSAPRNLPFYERLGFTVTADVEVPEGPRTWCMTRKPGA
modifications: Polynucleotide encoding a Synthetic Immune Receptor (SIR)
B4: 091616-Z01 (protein)
chain: MALPVTALLLPLALLLHAARPDIVMTQSPDSLAVSLGERATINCKSSQSILYSSNQKNYLAWYQQKPGQSPKLLIYWASTRESGVPDRFSGSGSGTDFTLTISSLQAEDVAVYYCHQYISSYTFGQGTKLEIKLEEQKLISEEDLGSGEDLKNVFPPEVAVFEPSKAEIAHTQKATLVCLATGFYPDHVELSWWVNGKEVHSGVCTDPQPLKEQPALNDSRYCLSSRLRVSATFWQNPRNHFRCQVQFYGLSENDEWTQDRAKPVTQIVSAEAWGRADCGITSASYHQGVLSATILYEILLGKATLYAVLVSALVLMAMVKRKDSRGRAKRSGSGATNFSLLKQAGDVEENPGPTSMDWIWRILFLVGAATGAHSFEQVQLVQSGAEVKKPGASVKVSCKASGYTFASQWMHWMRQAPGQGLEWIGWINPGNVNTKYNEKFKGRATLTVDTSTNTAYMELSSLRSEDTAVYYCARSTWYRPLDYWGQGTLVTVSSTREQKLISEEDLGSGIQNPDPAVYQLRDSKSSDKSVCLFTDFDSQTNVSQSKDSDVYITDKCVLDMRSMDFKSNSAVAWSNKSDFACANAFNNSIIPEDTFFPSSDVPCDVKLVEKSFETDTNLNFQNLSVIGFRILLLKVAGFNLLMTLRLWSSRAKRSGSGVKQTLNFDLLKLAGDVESNPGPSRGHMTEYKPTVRLATRDDVPRAVRTLAAAFADYPATRHTVDPDRHIERVTELQELFLTRVGLDIGKVWVADDGAAVAVWTTPESVEAGAVFAEIGPRMAELSGSRLAAQQQMEGLLAPHRPKEPAWFLATVGVSPDHQGKGLGSAVVLPGVEAAERAGVPAFLETSAPRNLPFYERLGFTVTADVEVPEGPRTWCMTRKPGA
modifications: Synthetic Immune Receptor (SIR)

Tested on: target antigen-expressing cell line
Test: Jurkat NFAT-GFP assay, coculture with target cell lines expressing the respective target antigen (summary Table 10A)
Assay type: cell-based, human
Design: key: The signs +/−, +, 2+ etc. after the name of the cell lines indicate the relative degree of positivity on the Jurkat-NFAT-GFP assay as measured by the % GFP positive cells; +: relative degree of positivity on the Jurkat-NFAT-GFP assay as measured by the % GFP positive cells; 2+: relative degree of positivity on the Jurkat-NFAT-GFP assay as measured by the % GFP positive cells
Outline: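 Readout is % GFP+ cells by FACS, graded +/− to 2+ relative to parental reporter cells. Jurkat-NFAT-GFP cells stably transduced with SIR constructs (puromycin-selected) were mixed with target-antigen-expressing cell lines at roughly 1:2 effector:target and cocultured ~4–18 h.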

| Molecule | NFAT-GFP ASSAY Positive Cell lines (coculture with L428 cells) | NFAT-GFP ASSAY Positive Cell lines (coculture with L363 cells) | NFAT-GFP ASSAY Positive Cell lines (coculture with U266 cells) | NFAT-GFP ASSAY Positive Cell lines (coculture with RAJI cells) | NFAT-GFP ASSAY Positive Cell lines: L428 (SIR-expressing Jurkat-NFAT-GFP cells cocultured with L428, relative % GFP positive cells) |
| --- | --- | --- | --- | --- | --- |
| B1 | L428 (+/−) |  |  |  |  |
| B2 |  | L363 (+/−), U266 | (+) |  |  |
| B3 |  | (+/−), L363 (+/−), | (+/−), L363 (+/−), | RAJI (+/−), U266 |  |
| B4 |  |  |  |  | L428 (+/−) |
